This assay concerns the target Recombinant human vascular endothelial growth factor receptor (VEGFR) (human) (UniProt P35968). Description: SPR. Background: Surface plasmon resonance follows binding to a sensor surface in real time, without labels.

Values joined by “and” are separate entries in the source; they are usually repeats but may differ in a detail not shown here. Equal entries are not always repeated.

Sequence of UniProt P35968 (P35968 20-764): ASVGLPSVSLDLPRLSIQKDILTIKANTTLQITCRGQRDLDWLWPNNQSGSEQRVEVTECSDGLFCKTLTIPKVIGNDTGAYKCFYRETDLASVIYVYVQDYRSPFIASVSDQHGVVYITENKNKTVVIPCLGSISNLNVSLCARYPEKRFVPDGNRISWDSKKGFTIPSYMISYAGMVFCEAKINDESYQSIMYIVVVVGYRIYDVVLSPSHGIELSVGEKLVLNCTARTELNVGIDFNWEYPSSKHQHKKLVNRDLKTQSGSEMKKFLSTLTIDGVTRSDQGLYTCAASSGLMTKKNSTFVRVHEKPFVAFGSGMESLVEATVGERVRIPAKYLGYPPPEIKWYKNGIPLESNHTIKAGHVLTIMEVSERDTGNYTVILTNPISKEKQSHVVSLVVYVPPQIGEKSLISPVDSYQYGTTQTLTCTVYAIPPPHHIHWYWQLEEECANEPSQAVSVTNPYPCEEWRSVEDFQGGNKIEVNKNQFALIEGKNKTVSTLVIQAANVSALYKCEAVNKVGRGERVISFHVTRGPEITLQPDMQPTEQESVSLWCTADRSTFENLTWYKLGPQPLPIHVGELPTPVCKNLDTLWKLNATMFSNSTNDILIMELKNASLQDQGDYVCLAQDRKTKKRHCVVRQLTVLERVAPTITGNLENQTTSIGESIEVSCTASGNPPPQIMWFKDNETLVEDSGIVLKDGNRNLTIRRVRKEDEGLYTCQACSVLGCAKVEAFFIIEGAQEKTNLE

For the substance “Recombinant human vascular endothelial growth factor (VEGF) (from UniProt P15692 1-395) (ligand)”, the SPR baseline shift was 60.2 mDeg and 69.3 mDeg and 57.4 mDeg; the kon was 83000 M⁻¹ s⁻¹ and 91000 M⁻¹ s⁻¹ and 82000 M⁻¹ s⁻¹.
Regarding “VEGF released from living SKOV-3 cells (from UniProt P15692 1-395) (ligand)”, the SPR baseline shift is 104 mDeg and 106 mDeg and 113 mDeg.

The term kon denotes a measure of how fast the partners come together.

The record behind these values is publication PMC4372114.
